From article doi:10.1101/2021.09.16.460654

Target: S. aureus FakA (S. aureus)

FakB1(A121I) (from UniProt X5EH37 1-288) (natural protein)
apparent KM for FakB1(A121I) in the FA kinase assay (0.2 µM FakA, [14C]16:0): 0.1 µM

FakB1(A158L) (from UniProt X5EH37 1-288) (natural protein)
apparent KM for FakB1(A158L) in the FA kinase assay (0.2 µM FakA, [14C]16:0): 0.13 µM

S. aureus wild-type FakB1 (from UniProt X5EH37 1-288) (natural protein)
apparent KM for FakB1 in the FA kinase assay (0.2 µM FakA, [14C]16:0): 0.13 µM
